Experiment: soluble on expression in E. coli; label from the status in PepcDB or PDB records

Row | Sequence | soluble on expression in E. coli
1 | MGSDAFDEMDEIWALYADDGAQALDAMEASLLALQAGEDAAAHVGPLFRAVHTFKGNSRVLGLSVVESRAHLCEDLIGLVRDAGVPMDGEIVEILLFASDTLRAMLEETAASRADVEGTGSEALMDQLRSKIARCSRSHHHHHH | soluble
2 | GPGSMALVADVPPPTATSMAKLFQESSFDPVTTFEAVWLPPRVPAAPPTAGASEPVPFAAVVDVLADISATGSRLECLKQLTFLLLAVIERCPEDLVPVMYLVINKHAPQHEGVELGIGDAVLVKAVAECCGMTETRAKEEYRQSGDLAEIAQMHKQKQGTLMKPKPLSARSVFKTYKEIAMMSGRDVMRRRSDLIKGLLRDAQGPEVNLIVRGLQQKMRIGLAEPSALAAVGYAFALHFLGGAQMHKMDEVQLQTLLNTGADSLARIFYEVPSLDVVLSAVLANGFMTLVPGSSIAKQYAKDLSIRPGLPVKPQLAYPTSSITVILDRLQGKKFTSEYKYDGERAQIHYDKDKGFHIFSRNSETHTGKYPDVISMLPKVFDPVEVQSFILDSEVVAVHSETGALQAFQVLQHRGRKNIAEEDVSIPVCVFVFDILYFNGEPQLNKTLQQRRELLWRCIHPLPAKLSFATHLDSEKVEDVQTFLERSIADGCEGLMVKTLEEEANYTPAKRSHYWLKLKKDYMDGVTDTLDLVPIAAFYGKGKRTGVFGGFLLACYDPKADEYQSICKIGTGFQDEELEKLTQSLKPFVVDEKPRYYRAGGEEPDVWLTEAQVWEVKAADLSVSPVHQAAVGLVDPDKGIALRFPRYLRQREDKKPADATNARQVADMYKAQSLAAEHDANGDAE | not soluble
3 | MSLKFAVLVFPGSNCDRDMYNAAIKSGVDAAYVDYRETTLDGFDGVLIPGGFSFGDYLRSGAMASVAPIIKEVKRFAKEGKPVLGVCNGFQILTEIGLLPGALLHNDSHLFISRNETLKITNNQTPFTHLYVKNENVVYPVAHGEGHYYCTDEIYRELNDNNQIILKYTNNPNGSYEDIAGIVNKEGNVCGMMPHPERALETLLGTNSGVKLFESMVKSWREQNEGHHHHHH | soluble
4 | MEPRFAGYAQKVRDSFARQPVMATLGARIDTLLPGRVELCMPYDRALTQQHGFLHAGIVSTVLDSACGYAAFSLMEEEAAVLTVEFKVNFLNPAEGERFAFRAEVVKPGRTLTVATATAYAFRDGEERAIATMTATLMALIGLEHHHHHH | soluble
5 | MEKELDLSQYSVRTDLAVEAKDIALENQPKPNNQSEIKGVIVKEKEEQGVKISMVEITEEGAEAIGKKKGRYVTLESVGIREQDTEKQEEAMEEVFAKELNFFIKSLNIPDDASCLVVGLGNLSVTPDALGPKAVDNLLITRHLFELQPESVQDGFRPVSAIVPGVMGMTGIETSDIIFGVVKKVNPDFIIAIDALAARSIERVNATIQISDSGIHPGSGVGNKRKEISYETLGIPVIAIGIPTVVDAVSITSDTIDFILKHFGREMKEQGKPSKSLLPSGMTFGEKKKLTEDDLPNEEQRQTYLGMIGTLPDEEKRRLIHEVLAPLGHNLMVTPKEVDMFIEDMANVVAGGLNAALHHEVDQENFGAYTH | soluble
6 | MYNVTQHATYKTKNKRETAVLIGVHAQTDRQFNFESTMEELDALSQTCQLNVKGQITQNREQFDHKYYVGKGKIDEIKSFIEFHDIDVVVTNDELTTAQSKTLNDNLGIKIIDRTQLILEIFALRARSREGKLQVELAQLDYLLPRLHGHGKSLSRLGGGIGTRGPGETKLEMDRRHIRTRMNEIKHQLKTVVDHRERYRNKREQNQVFQIALVGYTNAGKSSWFNVLANEETYEKNILFATLDPKTRQIQVNEGFNLIISDTVGFIQKLPTTLVAAFKSTLEEAKGADVLMHVVDASHSEYRTQIDTVNQIINDLDMDHIPQVVIFNKKDLCNEQMDVPVSKSAHVFVSSRDENDKQKVKNLVIQEIKNSLSPYEEIVDSADADRLYFLKQHTLVTELIFDETQASYRIKGFKKLLEHHHHHH | not soluble
7 | MHHHHHHLTKVFGSRNDRTLRRMRKVVNIINAMEPEMEKLSDEELKGKTAEFRARLEKGEVLENLIPEAFAVVREASKRVFGMRHFDVQLLGGMVLNERCIAEMRTGEGKTLTATLPAYLNALTGKGVHVVTVNDYLAQRDAENNRPLFEFLGLTVGINLPGMPAPAKREAYAADITYGTNNEYGFDYLRDNMAFSPEERVQRKLHYALVDEVDSILIDEARTPLIISGANQTLASITFQNYFRLYEKLAGMTGTADTEAFEFSSIYKLDTVVVPTNRPMIRKDLPDLVYMTEAEKIQAIIEDIKERTAKGQPVLVGTISIEKSELVSNELTKAGIKHNVLNAKFHANEAAIVAQAGYPAAVTIATNMAGRGTDIVLGGSWQAEVAALENPTAEQIEKIKADWQVRHDAVLEAGGLHIIGTERHESRRIDNQLRGRSGRQGDAGSSRFYLSMEDALMRIFASDRVSGMMRK | soluble
8 | MGSDKIHHHHHHMADKGIIFSDAMVRALLDGTKTQTRRLCAWPNNPNTPQLTYIVACDEPGWFGDEEGEVQFRVPHAQGDRLYVREAWSVRGTYTDVVEVGYRASANRSHTEFVEQWPVGDAIPGKGSWPQWPKYGPSIHMPRWASRMWLQITDVRVQRLQEISAADCRAEGLERGAVGGLLPAYRGSADLEWRIYADDAYHDLWDSLHGESGTRWADNPWVTVYTFDVHKGNIGKAARG | not soluble
9 | MKPKPLKCITSHHYIIKFYDKSNLRTSLYLLIFKEHKDYREQMKVYIIDYHKDDPKRCTGKKLVKLKIAEFTRVGKGVVLDPFAQITLSNKDKDIVRRIGITIVDTSWNNTSQSEFKNIRGEHRRIPILFAGNPIHYGIAYKLSSIEALIATLYIVDEVEEAIKLSNVVKWGHTFIELNKELLEAYKNKTEEDIKKIEREIIEKILEKLEHHHHHH | not soluble
10 | MGSDKIHHHHHHMGNPSWINVFALVDYRSSSDTLYRVEEGLIPLETFDEINSGDPVVLSSFLNAYRGEDLSLLVIWNHGDWWRGESQKQVKGVAYDFVNLDFFTIKEIKSVLRDSPVTVLGFDACLMGTFEILWELKDCARYVVVSSKEAPGNGWDYSVLRYSKDLSSLLSNIVKRYGEIYGTEYSLSVWDTSKLDEIMLWLDRVAQYMIENNLSPWEFEVERRTAGGSTTELVELGSFAKSLQNSSDVVLREYGEGLYSAIVSARVYGTPDNYTDLTIYLPQNMKNPEYWDDFVALSDFTSESSWDDLIEHWRDKN | not soluble
11 | MGSDKIHHHHHHMSTANIAPAIRIGVLGFGGLGQAAAKVLAGKREMKLVAVADQKGYAYAAAGLNFKDCIATYQSQGSVGYLEPVGSLGNNSIQDLIDSSQPVDGYFLALPNLPNDFIPSVARQFIQSGWRGVLVDAIKRTSAVEQLIAMKDELQAAGITYMTGCGATPGLLTAAAALAAQSYAEIHQVEITFGVGIANWEAYRATVREDIGHMPGYTVEAARAMTDAEVEALLDKTNGVLTLQNMEHADDVMLELAGIVERDRVTVGGVVDTRNPKKPLSTNVKVTGRTFEGKISTHTFTLGDETSMAANVCGPAFGYLKAGMQLHQRGIHGIFTAAEIMPQFVK | not soluble
12 | VASGYGGIRVGGPYFDDLSKGQVFDWAPGVTLSLGLAAAHQSIVGNRLRLALDSDLCAAVTGMPGPLAHPGLVCDVAIGQSTLATQRVKANLFYRGLRFHRFPAVGDTLYTRTEVVGLRANSPKPGRAPTGLAGLRMTTIDRTDRLVLDFYRCAMLPASPDWKPGAVPGDDLSRIGADAPAPAADPTAHWDGAVFRKRVPGPHFDAGIAGAVLHSTADLVSGAPELARLTLNIAATHHDWRVSGRRLVYGGHTIGLALAQATRLLPNLATVLDWESCDHTAPVHEGDTLYSELHIESAQAHADGGVLGLRSLVYAVSDSASEPDRQVLDWRFSALQF | soluble
13 | MSLARKNTATRQVIHIVGEGLTELFYFSHLKKILGYRYSISPRLFENNSIEKIEKKIKELLDEDVFVICVFDADVSRRSDAENKKMVSFKKKYENNPNVILCDSLQSIEYWFLLHFEDTCRHFQDSAATERALKQYLPTYDKTRKYLEKDKWVKEMLAGSKMDKACELAEKYKGRDSYSEIYKAIKKVSQNEGHHHHHH | soluble

Reference: the DeepSol protein solubility set
